Drawing on patent publication US20080249004A1, this text covers molecular weight in solution (DLS) for one substance.

The target in this assay is NCAM Ig1-2-3 fragment (recombinant rat NCAM residues 1-289, deglycosylated) (rat). The assay is described as follows: dynamic light scattering, 4 mg/ml in PBS pH 7.4, 18 C; self-association.

“NCAM Ig1-2-3 fragment (recombinant rat NCAM residues 1-289, deglycosylated) (from UniProt P13595 20-308)”: the molecular weight in solution (DLS) turned out to be 78 kDa.
